Laboratory results published in PMC4294672 (Molecular Biology of the Cell, 2015).
Where two headings read alike, the source gives them in different places.

B1: GST-Rho2 (enzyme)
chain: MLQSQPIRRKLVVVGDGACGKTSLLSVFTLGYFPTEYVPTVFENYVSDCRVDGKSVQLALWDTAGQEEYERLRPMSYAKAHIILVGFAIDSPDSLENVSTKWIEEINTLCPNVPFILVGMKADLRSDPVAIEEMRRRNQNFVKSQQAELVAQRIGARKYMECSSLTGDGVDDVFEAATRAALTVRDSENDKSSTKCCIIS
B2: GST-Rho5 (enzyme)
chain: MTTELRRKLVIVGDGACGKTCLLIVFSKGTFPEVYVPTVFENYVADVEVDGRHIELALWDTAGQEDYDRLRPLSYPDSHVVLICFSVDAPESLDNVQEKWISEVLHFCSNLPILLVGCKVDLRNDPKTIEELSKTSQKPITFEEGQVVAQKIGAYKYLECSAKLNEGVNEVFETAARASMLKFKPASVPKTKKKKHCILL
B3: hexahistidine (6His)-tagged Gef3 (natural protein)
chain: MSNPRMFQSRGKRVVSDSLPIANSTHTLEDTLKLRPDWTIALSQHETETRSTRTSCSTTTESTIAMRSKQKAIISVLEEFRDSEAAYVHDLHVAQRYYADRLSDRVKKSEWKDVFEIFLVLCKQASLFEIEMHKSLNDEINYILDDQDACLKPKPSVAQLFLSWLPKLSAVYGRYCVIQENIGKKVEKWMKNSSISEYLQECDSMAKIESNSWNLDSFLVKPVQRFLKYPLLLNQLYRSASLGIISDYVLLGEACHKSEIASQRMNELKRRRDIIITALDSVSNSQEVLLLSTDSIDKKIAKLQNSTNIFYVPEHEPILAFVHQLSSSYTNLLNLRSAICDWLKFSRYHYLKFFTFVEAYSVFCKDTKSADKWALISVALDNIAKGAVLRLTEQCQTSVLRPISNGILFFRNPLCVTDVWIKKATAFSKRRQSQVFEEDLESFPLLSNCLLEELPLFLEMARNVTDECILAFAQIQATFYDTIQKVLEPVVAKFNLTDHQDIPSIESIMDFTSLRSSMESSPKSK
B4: GST-Rho4 (enzyme)
chain: MSAFKKSGSKSETSKKLVVVGDGGCGKTCLLIVFSSGTFPERYVPTVFENYITDITYGPNSKVIELALWDTAGQEEYDRLRPLSYPNSNVILLCFSIDCPASLNNVTEKWYPEVQHFCPRTPIVLVGLKADLRKDRNATEVLRTQGLTPVTYQQAQSVALSMNAPYVECSAKENTGVNEVFQLAVGLTIKKSFSFSKKSCVIL
B5: GST-Rho1 (enzyme)
chain: MATELRRKLVIVGDGACGKTCLLIVFSKGTFPEVYVPTVFENYVADVEVDGRHVELALWDTAGQEDYDRLRPLSYPDSHVILICFAVDSPDSLDNVQEKWISEVLHFCSSLPILLVACKADLRNDPKIIEELSKTNQHPVTTEEGQAVAQKIGAYKYLECSAKTNEGVREVFESATRAAMLKHKPKVKPSSGTKKKKRCILL

Tests used:
Assay in all cases: pull-down
[1] = target: T1, 3FLAG-Gef3 (S. pombe, UniProt O59679 1-525)
T1 sequence: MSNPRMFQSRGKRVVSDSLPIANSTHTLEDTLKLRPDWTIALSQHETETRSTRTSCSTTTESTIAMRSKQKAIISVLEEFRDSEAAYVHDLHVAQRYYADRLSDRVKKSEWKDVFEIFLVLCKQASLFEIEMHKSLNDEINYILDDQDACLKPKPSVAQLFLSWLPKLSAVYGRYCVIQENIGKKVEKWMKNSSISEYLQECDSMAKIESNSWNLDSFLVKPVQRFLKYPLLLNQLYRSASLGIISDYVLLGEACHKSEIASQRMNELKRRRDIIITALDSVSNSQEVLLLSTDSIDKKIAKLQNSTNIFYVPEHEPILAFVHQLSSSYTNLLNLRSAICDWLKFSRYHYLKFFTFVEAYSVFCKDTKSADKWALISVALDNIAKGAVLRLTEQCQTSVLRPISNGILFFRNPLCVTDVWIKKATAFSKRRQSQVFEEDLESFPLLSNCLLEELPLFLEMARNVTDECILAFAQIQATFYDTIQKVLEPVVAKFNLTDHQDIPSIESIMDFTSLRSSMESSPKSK

[2] = target: B3
[3] = target: B4
[4] = target: T1, 3FLAG-Gef3; remark: listed apart in the source

| Binder | binding result [1] | binding result [2] | fold more pulled down than by the GST control [3] [times] | binding result [4] |
| --- | --- | --- | --- | --- |
| B1 | binds |  |  |  |
| B2 | binds | binds |  |  |
| B3 |  |  | ~35 |  |
| B4 |  |  |  | binds |
| B5 |  | binds |  | binds |
